Data published in patent publication US20100189695A1, “IRAK-1 AS REGULATOR OF DISEASES AND DISORDERS” (priority 2008, published 2010).

Legend:
NFAT [1] = experiment: NFAT responsive element luciferase reporter assay in transfected Hela cells; format: cell-based, human; details: for suppression of NFAT reporter activity: co-transfection of expression plasmid with NFAT reporter
Source text: NFAT family transcription factors play critical roles in the pathogenesis of cardiovascular diseases, including hypertension and atherosclerosis. […] First, human Hela cells were trasfected with either empty vector plasmid or wild type IRAK-1 expression plasmid together with a NFAT responsive element-containing luciferase reporter plasmid. […] Subsequently, plasmids that express mutated IRAK-1 molecules (D340N, C203S, T113I, mutations which are present in human patients with cardiovascular diseases) have been generated.
Further experiments were performed to ask whether the C-terminal domain of IRAK-1 is involved in facilitating its suppressive regulatory function toward NFAT activity. […] Statistical significance was calculated using a t-Test for two-samples assuming unequal variances and p-values are as indicated.
In order to determine the mechanism for IRAK-1 involvement, transcription factor reporter assays were performed. In this set of experiments, NFAT reporter activity was determined in the presence of IRAK-1 or IRAK-M, a homologue of IRAK-1 (FIG. 10).

NFAT [2] = experiment: Co-immunoprecipitation of Flag-IRAK-1 constructs with NFAT in transfected Hela cells; format: binding, human; details: anti-Flag IP, anti-NFAT Western blot
Experimental: To further delineate which part of IRAK-1 is involved in its interaction with NFAT, experiments were performed using full-length IRAK-1 and a C-terminally truncated form (IRAK-1ΔC—see FIG. 1). Specifically, Hela cells were transfected with IRAK-1 encoding plasmids that express either the full length wild type human IRAK-1 protein or a truncated version of IRAK-1 with deletion of the C terminal region (amino acids 548 to 712 are deleted). Equal amount of cell lysates were harvested from the transfected cells and used to perform co-immunoprecipitation assays with an anti-Flag antibody. Immunoprecipitated proteins were resolved by electrophoresis, and the co-immunoprecipitated proteins were subjected to Western blot analyses using an anti-NFAT antibody.

B1: Interleukin-1 Receptor Associated Kinase-1 (protein)
chain: MAGGPGPGEPVVPGAQHFLYEVPPWVMCRFYKVMDALEPADWCQFAALIVRDQTELRLCERSEQRTASVLWPWINRNARVADLVHILTHLQLLRARDIITAWHPPAPVVPPSTAAPRPSSISAGSEAGDWSPRKLQSSASTFLSPAFPGSQTHSESELLQVPLPVSLGPPLPSSAPSSTKSSPESPVSGLQRAHPSPFCWPFCEISQGTCNFSEELRIGEGGFGCVYRAVMRNTTYAVKRLKEEADLEWTMVKQSFLTEVEQLSRFRHPNIVDFAGYCAESGLYCLVYGFLPNGSLEDQLHLQTQACSPLSWPQRLDILLGTARAIQFLHQDSPSLIHGDIKSSNVLLDERLMPKLGDFGLARFSRFAGAKASQSSTVARTSTVRGTLAYLPEEYIKTGRLAVDTDTFSFGVVILETLAGQRAVRTQGAKTKYLKDLIEDEAEEAGVTLKSTQPTLWVGVATDAWAAPIAAQIYKKHLDSRPGPCPPQLGLALAQLACCCMHRRAKKRPPMTQVYKRLEGLQAGPPWELEVAGHGSPSPQENSYMSTTGSAQSGDEPWQPLVVTTRAPAQAAQQLQRSPNQPVESDESVPGLSATLHSWHLTPGSHPSPASFREASCTQGGTTRESSVRSSPGFQPTTMEGSPTGSSSLLSSEPPQIIINPARQKMVQKLALYEEGVLDSLQLLSSGFFPGLDLEPEKSQGPEESDEFQS
suppression of NFAT reporter activity (NFAT [1]): suppression of NFAT by IRAK-1 could be seen | reduction of NFAT reporter luciferase activity compared with the control transfection (NFAT [1]; co-transfection with NFAT-luciferase reporter plasmid, Hela cells, control adjusted to 100%): −80% | co-immunoprecipitation with NFAT (NFAT [2]): capable of co-immunoprecipitating with NFAT

B2: D340N: mutated IRAK-1 molecule, mutation present in human patients with cardiovascular diseases (protein, UniProt P51617 1-712, looked up, variant D340N)
Interleukin-1 …: MAGGPGPGEPAAPGAQHFLYEVPPWVMCRFYKVMDALEPADWCQFAALIVRDQTELRLCERSGQRTASVLWPWINRNARVADLVHILTHLQLLRARDIITAWHPPAPLPSPGTTAPRPSSIPAPAEAEAWSPRKLPSSASTFLSPAFPGSQTHSGPELGLVPSPASLWPPPPSPAPSSTKPGPESSVSLLQGARPFPFCWPLCEISRGTHNFSEELKIGEGGFGCVYRAVMRNTVYAVKRLKENADLEWTAVKQSFLTEVEQLSRFRHPNIVDFAGYCAQNGFYCLVYGFLPNGSLEDRLHCQTQACPPLSWPQRLDILLGTARAIQFLHQDSPSLIHGNIKSSNVLLDERLTPKLGDFGLARFSRFAGSSPSQSSMVARTQTVRGTLAYLPEEYIKTGRLAVDTDTFSFGVVVLETLAGQRAVKTHGARTKYLKDLVEEEAEEAGVALRSTQSTLQAGLAADAWAAPIAMQIYKKHLDPRPGPCPPELGLGLGQLACCCLHRRAKRRPPMTQVYERLEKLQAVVAGVPGHSEAASCIPPSPQENSYVSSTGRAHSGAAPWQPLAAPSGASAQAAEQLQRGPNQPVESDESLGGLSAALRSWHLTPSCPLDPAPLREAGCPQGDTAGESSWGSGPGSRPTAVEGLALGSSASSSSEPPQIIINPARQKMVQKLALYEDGALDSLQLLSSSSLPGLGLEQDRQGPEESDEFQS
suppression of NFAT reporter activity (NFAT [1]): failed to suppress NFAT activity

B3: C203S: mutated IRAK-1 molecule, mutation present in human patients with cardiovascular diseases (protein, UniProt P51617 1-712, looked up, variant C203S)
Interleukin-1 …: MAGGPGPGEPAAPGAQHFLYEVPPWVMCRFYKVMDALEPADWCQFAALIVRDQTELRLCERSGQRTASVLWPWINRNARVADLVHILTHLQLLRARDIITAWHPPAPLPSPGTTAPRPSSIPAPAEAEAWSPRKLPSSASTFLSPAFPGSQTHSGPELGLVPSPASLWPPPPSPAPSSTKPGPESSVSLLQGARPFPFCWPLSEISRGTHNFSEELKIGEGGFGCVYRAVMRNTVYAVKRLKENADLEWTAVKQSFLTEVEQLSRFRHPNIVDFAGYCAQNGFYCLVYGFLPNGSLEDRLHCQTQACPPLSWPQRLDILLGTARAIQFLHQDSPSLIHGDIKSSNVLLDERLTPKLGDFGLARFSRFAGSSPSQSSMVARTQTVRGTLAYLPEEYIKTGRLAVDTDTFSFGVVVLETLAGQRAVKTHGARTKYLKDLVEEEAEEAGVALRSTQSTLQAGLAADAWAAPIAMQIYKKHLDPRPGPCPPELGLGLGQLACCCLHRRAKRRPPMTQVYERLEKLQAVVAGVPGHSEAASCIPPSPQENSYVSSTGRAHSGAAPWQPLAAPSGASAQAAEQLQRGPNQPVESDESLGGLSAALRSWHLTPSCPLDPAPLREAGCPQGDTAGESSWGSGPGSRPTAVEGLALGSSASSSSEPPQIIINPARQKMVQKLALYEDGALDSLQLLSSSSLPGLGLEQDRQGPEESDEFQS
suppression of NFAT reporter activity (NFAT [1]): failed to suppress NFAT activity

B4: T113I: mutated IRAK-1 molecule, mutation present in human patients with cardiovascular diseases (protein, UniProt P51617 1-712, looked up, variant T113I)
Interleukin-1 …: MAGGPGPGEPAAPGAQHFLYEVPPWVMCRFYKVMDALEPADWCQFAALIVRDQTELRLCERSGQRTASVLWPWINRNARVADLVHILTHLQLLRARDIITAWHPPAPLPSPGITAPRPSSIPAPAEAEAWSPRKLPSSASTFLSPAFPGSQTHSGPELGLVPSPASLWPPPPSPAPSSTKPGPESSVSLLQGARPFPFCWPLCEISRGTHNFSEELKIGEGGFGCVYRAVMRNTVYAVKRLKENADLEWTAVKQSFLTEVEQLSRFRHPNIVDFAGYCAQNGFYCLVYGFLPNGSLEDRLHCQTQACPPLSWPQRLDILLGTARAIQFLHQDSPSLIHGDIKSSNVLLDERLTPKLGDFGLARFSRFAGSSPSQSSMVARTQTVRGTLAYLPEEYIKTGRLAVDTDTFSFGVVVLETLAGQRAVKTHGARTKYLKDLVEEEAEEAGVALRSTQSTLQAGLAADAWAAPIAMQIYKKHLDPRPGPCPPELGLGLGQLACCCLHRRAKRRPPMTQVYERLEKLQAVVAGVPGHSEAASCIPPSPQENSYVSSTGRAHSGAAPWQPLAAPSGASAQAAEQLQRGPNQPVESDESLGGLSAALRSWHLTPSCPLDPAPLREAGCPQGDTAGESSWGSGPGSRPTAVEGLALGSSASSSSEPPQIIINPARQKMVQKLALYEDGALDSLQLLSSSSLPGLGLEQDRQGPEESDEFQS
suppression of NFAT reporter activity (NFAT [1]): failed to suppress NFAT activity

B5: IRAK-1-ΔC: truncated version of IRAK-1 with deletion of the C terminal region (amino acids 548 to 712 are deleted) (protein, UniProt P51617 1-547, looked up, fragment)
chain: MAGGPGPGEPAAPGAQHFLYEVPPWVMCRFYKVMDALEPADWCQFAALIVRDQTELRLCERSGQRTASVLWPWINRNARVADLVHILTHLQLLRARDIITAWHPPAPLPSPGTTAPRPSSIPAPAEAEAWSPRKLPSSASTFLSPAFPGSQTHSGPELGLVPSPASLWPPPPSPAPSSTKPGPESSVSLLQGARPFPFCWPLCEISRGTHNFSEELKIGEGGFGCVYRAVMRNTVYAVKRLKENADLEWTAVKQSFLTEVEQLSRFRHPNIVDFAGYCAQNGFYCLVYGFLPNGSLEDRLHCQTQACPPLSWPQRLDILLGTARAIQFLHQDSPSLIHGDIKSSNVLLDERLTPKLGDFGLARFSRFAGSSPSQSSMVARTQTVRGTLAYLPEEYIKTGRLAVDTDTFSFGVVVLETLAGQRAVKTHGARTKYLKDLVEEEAEEAGVALRSTQSTLQAGLAADAWAAPIAMQIYKKHLDPRPGPCPPELGLGLGQLACCCLHRRAKRRPPMTQVYERLEKLQAVVAGVPGHSEAASCIPPSPQENSY
suppression of NFAT reporter activity (NFAT [1]): failed to suppress NFAT activity

B6: IRAK-1b: isoform of IRAK-1 that does not possess kinase activity (protein)
chain: MAGGPGPGEPAAPGAQHFLYEVPPWVMCRFYKVMDALEPADWCQFAALIVRDQTELRLCERSGQRTASVLWPWINRNARVADLVHILTHLQLLRARDIITAWHPPAPLPSPGTTAPRPSSIPAPAEAEAWSPRKLPSSASTFLSPAFPGSQTHSGPELGLVPSPASLWPPPPSPAPSSTKPGPESSVSLLQGARPFPFCWPLCEISRGTHNFSEELKIGEGGFGCVYRAVMRNTVYAVKRLKENADLEWTAVKQSFLTEVEQLSRFRHPNIVDFAGYCAQNGFYCLVYGFLPNGSLEDRLHCQTQACPPLSWPQRLDILLGTARAIQFLHQDSPSLIHGDIKSSNVLLDERLTPKLGDFGLARFSRFAGSSPSQSSMVARTQTVRGTLAYLPEEYIKTGRLAVDTDTFSFGVVVLETLAGQRAVKTHGARTKYLKDLVEEEAEEAGVALRSTQSTLQAGLAADAWAAPIAMQIYKKHLDPRPGPCPPELGLGLGQLACCCLHRRAKRRPPMTQENSYVSSTGRAHSGAAPWQPLAAPSGASAQAAEQLQRGPNQPVESDESLGGLSAALRSWHLTPSCPLDPAPLREAGCPQGDTAGESSWGSGPGSRPTAVEGLALGSSASSSSEPPQIIINPARQKMVQKLALYEDGALDSLQLLSSSSLPGLGLEQDRQGPEESDEFQS
suppression of NFAT reporter activity (NFAT [1]): cannot fulfill the inhibitory function on NFAT

B7: IRAK-M: a homologue of IRAK-1 (protein)
chain: MAGNCGARGALSAHTLLFDLPPALLGELCAVLDSCDGALGWRGLAERLSSSWLDVRHIEKYVDQGKSGTRELLWSWAQKNKTIGDLLQVLQEMGHRRAIHLITNYGAVLSPSEKSYQEGGFPNILFKETANVTVDNVLIPEHNEKGILLKSSISFQNIIEGTRNFHKDFLIGEGEIFEVYRVEIQNLTYAVKLFKQEKKMQCKKHWKRFLSELEVLLLFHHPNILELAAYFTETEKFCLIYPYMRNGTLFDRLQCVGDTAPLPWHIRIGILIGISKAIHYLHNVQPCSVICGSISSANILLDDQFQPKLTDFAMAHFRSHLEHQSCTINMTSSSSKHLWYMPEEYIRQGKLSIKTDVYSFGIVIMEVLTGCRVVLDDPKHIQLRDLLRELMEKRGLDSCLSFLDKKVPPCPRNFSAKLFCLAGRCAATRAKLRPSMDEVLNTLESTQASLYFAEDPPTSLKSFRCPSPLFLENVPSIPVEDDESQNNNLLPSDEGLRIDRMTQKTPFECSQSEVMFLSLDKKPESKRNEEACNMPSSSCEESWFPKYIVPSQDLRPYKVNIDPSSEAPGHSCRSRPVESSCSSKFSWDEYEQYKKE
suppression of NFAT reporter activity (NFAT [1]): did not show suppression of NFAT
